The record followed here is patent US20200181247A1 (published 2020).

Changes are numbered by the printed parent chain. Names may count otherwise.

Assay [1] concerns the target T1, cyclo(CGHHQKG) (SEQ ID NO: 12) conjugated to BSA (also: conjugated to BSA).
T1 construct: Synthetic cyclic peptide (CPC Scientific) holding HHQK of A-beta; also called Cyclic Peptide; cyclopeptide
T1 peptide: cyclo(CGHHQKG)
Kind of assay: single cycle Biacore analysis. As to the method:
The fully humanized antibodies were prepared using Composite Human Antibody™ technology. The humanized variable region genes were cloned into vectors encoding a human IgG4 (S241P hinge variant) heavy chain constant domain and a human kappa light chain constant domain. Chimeric and humanized antibodies were transiently expressed in CHO cells and Protein A purified and tested.
Binding was determined using single cycle Biacore analysis. Antibodies were analysed in two separate experiments.

Another assay has as its target T2, A-beta42 Monomer (human).
T2 construct: Recombinant A-beta42 peptide (California Peptide), HFIP-treated, in DMSO then water, used at once; also called Ab42 Monomer; A-beta 1-42 monomer
Kind of assay: SPR; purified antibody immobilized, A-beta preparation flowed over.

Assay [2] deals with T3, A-beta42 Oligomer (synthetic, prepared in F12 medium) (human).
T3 construct: Non-covalent oligomer of recombinant A-beta42 (California Peptide), 100 µM in F12 medium, 24 h to 7 days at 4 °C; also called Ab42 Oligomer; A-beta 1-42 oligomers
Described as above.

The target of assay [3] is T4, commercially-prepared stable A-beta42 Oligomers (SynAging SAS) (human).
T4 construct: Bought oligomer preparation; also called AbO (SynAging); SynAging AbO
Kind of assay: ProteOn biosensor; antibody captured or amine-coupled on GLM chip, AbO dilutions 1 uM to 12.3 nM. As to the method: AbO 3 fold-dilutions were used: 1 uM, 0.33 uM, 0.11 uM, 37 nM, 12.3 nM. Assay buffer was PBS-E+Tween 20+2 mg/ml BSA.

Assay [4] has as its target T1, cyclo(CGHHQKG) (SEQ ID NO: 12) …. Nature of the assay: ProteOn biosensor; antibody amine-coupled to GLH chip, Cyclo-BSA dilutions 9 nM to 111 pM. As to the method: Cyclo-BSA 3-fold dilutions were used from 9 nM to 111 pM. Assay buffer was PBS-E+0.05% Tween+10 mg/ml BSA.
The target is the same in assay [5]. Kind of assay: SPR; immobilized antibody pre-exposed to cyclic peptide.

T2 sequence (peptide, as listed by the source): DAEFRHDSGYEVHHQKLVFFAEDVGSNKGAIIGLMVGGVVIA
T4 sequence (peptide, as listed by the source): as above
T3 sequence (peptide, as listed by the source): as above

B1: 301-17 (hybridoma-purified 301-17 IgG3) (antibody, V domains shown)
VH: QVQLQQPGAELVKPGASVKMSCKASGYSFTSYWINWVKQRPGQGLEWIGDVHPGRGVSTYNAKFKSKATLTLDTSSSTAYMQLSSLTSEDSAVYYCSRSHGNTYWFFDVWGAGTTVTVSSATTTAPS
VL: DVLMTQTPLSLPVSLGDQASISCRSSQSIVHSNGNTYLEWYLQKPGQSPKLLIYKVSNRFSGVPDRFSGSGSGTDFTLKISRVEAEDLGVYYCFQGSHVPFTFGSGTKLEIKRADA
notes: Mouse monoclonal from hybridoma, IgG3 / kappa; also called mu301-17
Turning to B1, the Kd was 0.4 nM in assay [1] and around 26.9 nM in assay [3]. For the same molecule, the entries for the “binding response (RU)” value (with A-beta42 Monomer; in assay [2]) were -27.1 RU and 148 RU, respectively.

B2: Recombinant 301-17 IgG2a (antibody)
heavy: QVQLQQPGAELVKPGASVKMSCKASGYSFTSYWINWVKQRPGQGLEWIGDVHPGRGVSTYNAKFKSKATLTLDTSSSTAYMQLSSLTSEDSAVYYCSRSHGNTYWFFDVWGAGTTVTVSSAKTTAPSVYPLAPVCGDTTGSSVTLGCLVKGYFPEPVTLTWNSGSLSSGVHTFPAVLQSDLYTLSSSVTVTSSTWPSQSITCNVAHPASSTKVDKKIEPRGPTIKPCPPCKCPAPNLLGGPSVFIFPPKIKDVLMISLSPIVTCVVVDVSEDDPDVQISWFVNNVEVHTAQTQTHREDYNSTLRVVSALPIQHQDWMSGKEFKCKVNNKDLPAPIERTISKPKGSVRAPQVYVLPPPEEEMTKKQVTLTCMVTDFMPEDIYVEWTNNGKTELNYKNTEPVLDSDGSYFMYSKLRVEKKNWVERNSYSCSVVHEGLHNHHTTKSFSRTPGK
light: DVLMTQTPLSLPVSLGDQASISCRSSQSIVHSNGNTYLEWYLQKPGQSPKLLIYKVSNRFSGVPDRFSGSGSGTDFTLKISRVEAEDLGVYYCFQGSHVPFTFGSGTKLEIKRADAAPTVSIFPPSSEQLTSGGASVVCFLNNFYPKDINVKWKIDGSERQNGVLNSWTDQDSKDSTYSMSSTLTLTKDEYERHNSYTCEATHKTSTSPIVKSFNRNEC
Turning to B2, the dissociation constant (Kd) in assay [4] is around 0.017 nM; in assay [3], 16.2 to 19.5 nM.

B3: 301-11 (antibody, V domains shown)
VH: EVQLVESGGGLVKPGGSLKLSCAASGFTFSDYYMYWVRQTPEKRLEWVATISDGGSYTSYPDSVKGRFTISRDNAKNNLYLQMSSLRSEDTAMYYCARDYYGSSSYTSGFAYWGQGTLVTVSA
VL: DIVMSQSPSSLAVSTGEKVTMSCKSSQSLLNSRTRKNYLAWYQQKPGQSPKLLIYWASTRESGVPDRFTGSGSGTDFTLTISSVQAEDLAVYYCKQSYNLYTFGGGTKLEIK
notes: Mouse monoclonal from hybridoma, IgG3 / kappa, raised against cyclo(CGHHQKG)-KLH
Take B3: the “binding response (RU)” value with A-beta42 Monomer is -14.1 RU; in assay [2], -2.8 RU.

B4: 301-17 chimeric antibody (VH0 Vk0, human IgG4) (antibody, V domains shown)
VH: QVQLQQPGAELVKPGASVKMSCKASGYSFTSYWINWVKQRPGQGLEWIGDVHPGRGVSTYNAKFKSKATLTLDTSSSTAYMQLSSLTSEDSAVYYCSRSHGNTYWFFDVWGAGTTVTVSS
VL: DVLMTQTPLSLPVSLGDQASISCRSSQSIVHSNGNTYLEWYLQKPGQSPKLLIYKVSNRFSGVPDRFSGSGSGTDFTLKISRVEAEDLGVYYCFQGSHVPFTFGSGTKLEIK
notes: expressed in CHO cells; not expressly tied to the chimeric one; also called V0H0 and V0k0
With B4, the Kd in assay [1] is around 0.02 nM.

B5: Humanized antibody of 301-17 (VH2 Vk5), IgG4 isotype (S241P hinge mutation) (antibody, V domains shown)
VH: B4 VH with Q5V, P7S, L11V, V12K, K67R, S76I, Q82E, T87R, S91T, A112Q
VL: DVLMTQSPLSLPVTLGQPASISCRSSQSIVHSNGNTYLEWYQQRPGQSPRLLIYKVSNRFSGVPDRFSGSGSGTDFTLKISRVEAEDVGVYYCFQGSHVPFTFGQGTKLEIKR
notes: also called hu301-17
As to B5, the binding result in assay [5] is reported as “binds”.
